Experimental data published in patent US20080311034A1 (published 2008).

T1: recombinant human His-tagged FcγRIIa (R&D Systems #1330-CD-050) (human, UniProt P12318 36-218, limits assumed)
T1 construct: Bought; also called CD32a; recombinant, soluble, human FcγRIIa
T1 sequence (looked up): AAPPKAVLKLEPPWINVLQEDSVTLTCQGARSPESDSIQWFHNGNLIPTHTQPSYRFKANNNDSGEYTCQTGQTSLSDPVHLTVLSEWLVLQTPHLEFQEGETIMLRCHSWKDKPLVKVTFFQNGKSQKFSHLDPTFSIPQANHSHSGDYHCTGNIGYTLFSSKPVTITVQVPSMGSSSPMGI

T2: recombinant human FcγRIIb (R&D Systems #1875-CD-050) (human, UniProt P31994 46-217, limits assumed)
T2 construct: Bought; also called CD32b; recombinant, soluble, human FcγRIIb
T2 sequence (looked up): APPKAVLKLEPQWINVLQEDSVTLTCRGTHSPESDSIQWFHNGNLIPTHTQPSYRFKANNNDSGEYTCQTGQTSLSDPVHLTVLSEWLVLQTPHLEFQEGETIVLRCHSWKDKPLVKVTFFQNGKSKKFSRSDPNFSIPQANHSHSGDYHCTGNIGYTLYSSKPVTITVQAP

B1: CHO-CNTO 860 I332E (antibody)
heavy: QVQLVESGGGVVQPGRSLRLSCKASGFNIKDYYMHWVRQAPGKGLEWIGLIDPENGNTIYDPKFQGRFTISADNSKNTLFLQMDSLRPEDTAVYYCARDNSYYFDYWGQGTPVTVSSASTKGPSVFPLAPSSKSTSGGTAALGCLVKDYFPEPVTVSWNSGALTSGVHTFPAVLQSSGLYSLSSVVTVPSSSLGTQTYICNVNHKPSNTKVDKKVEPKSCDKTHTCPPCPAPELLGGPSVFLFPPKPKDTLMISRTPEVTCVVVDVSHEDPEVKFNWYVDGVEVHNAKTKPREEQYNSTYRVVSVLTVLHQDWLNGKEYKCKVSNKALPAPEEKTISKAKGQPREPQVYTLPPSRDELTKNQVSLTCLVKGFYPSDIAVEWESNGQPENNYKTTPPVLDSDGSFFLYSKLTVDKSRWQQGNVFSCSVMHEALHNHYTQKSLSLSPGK
light: DIQMTQSPSSLSASVGDRVTITCKASQDIRKYLNWYQQKPGKAPKLLIYYATSLADGVPSRFSGSGSGTDYTFTISSLQPEDIATYYCLQHGESPYTFGQGTKLEITRTVAAPSVFIFPPSDEQLKSGTASVVCLLNNFYPREAKVQWKVDNALQSGNSQESVTEQDSKDSTYSLSSTLTLSKADYEKHKVYACEVTHQGLSSPVTKSFNRGEC
modifications: N-linked glycan at Asn297 of the heavy chain (CHO-type, highly fucosylated); not carried by the letters
notes: IgG1/kappa Fc variant; transiently expressed in CHO cells (p4157/p4146); also called I332E (CHO cell-derived); I332E from CHO cells; copies: 2 + 2
B2: YB2/0-CNTO 860 WT (antibody, human IgG1, kappa)
heavy: not shown
light: B1 light
modifications: Heavy chain N297 carries the YB2/0-type N-linked glycan (40-60% fucosylated); not carried by the letters.
notes: Anti-human tissue factor human IgG1/kappa; stably expressed in rat YB2/0 cells (p2401/p2402; YB2/0 Abs typically 40-60% fucosylated), purified by protein A; also called WT (YB2/0 cell-derived); WT from YB2/0 cells; copies: 2 + 2
B3: YB2/0-CNTO 860 I332E (antibody, human IgG1, kappa)
heavy: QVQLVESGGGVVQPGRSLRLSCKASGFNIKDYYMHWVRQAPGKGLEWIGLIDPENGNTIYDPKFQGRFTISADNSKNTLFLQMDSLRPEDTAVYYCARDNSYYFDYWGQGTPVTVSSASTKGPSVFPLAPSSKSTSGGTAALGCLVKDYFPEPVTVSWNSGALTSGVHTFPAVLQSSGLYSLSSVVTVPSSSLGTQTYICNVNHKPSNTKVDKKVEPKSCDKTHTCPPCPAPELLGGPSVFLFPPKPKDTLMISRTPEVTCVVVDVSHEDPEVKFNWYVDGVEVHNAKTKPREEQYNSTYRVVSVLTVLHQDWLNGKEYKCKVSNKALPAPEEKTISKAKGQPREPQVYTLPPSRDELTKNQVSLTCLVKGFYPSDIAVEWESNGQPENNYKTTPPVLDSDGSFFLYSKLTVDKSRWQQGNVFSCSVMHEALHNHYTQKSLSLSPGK
light: B1 light
modifications: Heavy chain N297 carries the YB2/0-type low-fucose N-linked glycan; not carried by the letters.
notes: IgG1/kappa Fc variant; stably expressed in YB2/0 cells (p4148/p2402), low-fucose glycan; EU numbering; also called I332E (YB2/0 cell-derived); I332E from YB2/0 cells; copies: 2 + 2
B4: CHO-CNTO 860 I332E/A330I (antibody, human IgG1, kappa)
heavy: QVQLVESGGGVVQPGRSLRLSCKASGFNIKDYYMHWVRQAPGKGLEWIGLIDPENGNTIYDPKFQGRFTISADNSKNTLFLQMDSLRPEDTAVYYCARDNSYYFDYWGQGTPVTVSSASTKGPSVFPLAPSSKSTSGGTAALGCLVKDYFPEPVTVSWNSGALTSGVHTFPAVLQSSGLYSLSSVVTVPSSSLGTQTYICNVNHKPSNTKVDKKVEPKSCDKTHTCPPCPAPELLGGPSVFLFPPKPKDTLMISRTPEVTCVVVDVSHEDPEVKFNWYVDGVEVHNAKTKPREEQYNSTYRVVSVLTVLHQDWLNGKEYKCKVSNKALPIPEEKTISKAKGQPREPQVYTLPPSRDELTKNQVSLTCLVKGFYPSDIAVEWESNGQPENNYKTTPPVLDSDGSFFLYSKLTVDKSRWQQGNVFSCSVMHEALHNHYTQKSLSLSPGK
light: B1 light
modifications: Heavy chain N297 carries the CHO-type N-linked glycan (about 95% fucosylated); not carried by the letters.
notes: IgG1/kappa Fc variant; transiently expressed in CHO cells (p4185/p4146); EU numbering; also called A330I/I332E (CHO cell-derived); A330I/I332E variant from CHO cells; copies: 2 + 2
B5: YB2/0-CNTO 860 A330I/I332E (antibody, human IgG1, kappa)
heavy: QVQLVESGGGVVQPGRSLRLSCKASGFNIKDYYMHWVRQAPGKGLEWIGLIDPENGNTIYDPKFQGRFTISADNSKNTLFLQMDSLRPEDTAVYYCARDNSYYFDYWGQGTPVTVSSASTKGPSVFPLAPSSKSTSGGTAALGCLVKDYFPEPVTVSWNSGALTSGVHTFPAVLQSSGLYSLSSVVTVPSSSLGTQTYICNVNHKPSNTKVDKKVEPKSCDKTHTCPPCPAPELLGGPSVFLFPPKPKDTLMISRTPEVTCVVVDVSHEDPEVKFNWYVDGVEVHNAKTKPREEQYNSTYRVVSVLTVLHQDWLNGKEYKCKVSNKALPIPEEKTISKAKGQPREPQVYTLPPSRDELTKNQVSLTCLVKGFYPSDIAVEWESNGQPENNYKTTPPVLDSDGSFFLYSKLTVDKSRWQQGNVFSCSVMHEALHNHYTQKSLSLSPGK
light: B1 light
modifications: N-linked glycan at heavy chain Asn297 (YB2/0-type, low fucose); not carried by the letters
notes: IgG1/kappa Fc variant; stably expressed in YB2/0 cells (p4178/p2402); EU numbering; also called A330I/I332E (YB2/0 cell-derived); A330I/I332E from YB2/0 cells; copies: 2 + 2
B6: YB2/0-CNTO 860 A330I (antibody, IgG1)
heavy: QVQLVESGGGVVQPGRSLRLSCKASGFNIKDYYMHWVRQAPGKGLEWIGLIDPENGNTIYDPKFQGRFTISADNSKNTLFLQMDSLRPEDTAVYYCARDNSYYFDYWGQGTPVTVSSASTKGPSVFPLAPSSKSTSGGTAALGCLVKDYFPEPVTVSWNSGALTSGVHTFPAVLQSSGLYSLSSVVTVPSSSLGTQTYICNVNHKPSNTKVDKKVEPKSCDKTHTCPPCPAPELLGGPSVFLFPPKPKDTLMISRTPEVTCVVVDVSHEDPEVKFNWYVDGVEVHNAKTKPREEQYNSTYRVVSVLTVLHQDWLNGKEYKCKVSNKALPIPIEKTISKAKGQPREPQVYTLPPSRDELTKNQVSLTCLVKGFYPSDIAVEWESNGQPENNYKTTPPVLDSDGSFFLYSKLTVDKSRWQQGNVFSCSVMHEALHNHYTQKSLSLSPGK
light: B1 light
modifications: N-linked glycan at heavy chain Asn297 (YB2/0-type, low fucose); not carried by the letters
notes: IgG1/kappa Fc variant; stably expressed in YB2/0 cells (p4177/p2402); EU numbering; also called A330I (YB2/0 cell-derived); A330I mutant expressed in YB2/0 cells; copies: 2 + 2

How the values were obtained:
[1] = target: T3, recombinant human His-tagged FcγRIIIa (extracellular domain made at Centocor) (human, UniProt P08637 17-208); assay: ELISA
T3 construct: extracellular domain; also called CD16a; recombinant, soluble, human FcγRIIIa
T3 sequence (P08637 17-208): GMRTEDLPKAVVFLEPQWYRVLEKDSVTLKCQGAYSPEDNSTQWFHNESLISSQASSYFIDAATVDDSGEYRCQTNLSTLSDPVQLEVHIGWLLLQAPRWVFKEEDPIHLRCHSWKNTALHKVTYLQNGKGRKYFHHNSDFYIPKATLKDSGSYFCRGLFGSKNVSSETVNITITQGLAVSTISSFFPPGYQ
Method: (§1) FcγRI (CD64) ELISA —50 μl of a 1 μg/ml solution of recombinant human His-tagged FcγRI (extracellular domain, R&D Systems #1257-FC-050) in ELISA buffer (PBS, pH 7.4, 4 mg/ml BSA, 0.01% Tween-20) was added to each well of HisGrab 96 well plates (Pierce #15142) (Powers G., Notebook 9006, pp. 166-168, 180-181). The plate was incubated with shaking for 3 hours. The plates were washed 3× with 300 μl of wash buffer (PBS, 0.01% Tween-20) on a plate washer. Serial dilutions of the CNTO860 antibody Fc-variant samples were made in ELISA buffer and 50 μl per well of each titration were added in duplicate to the FcγRI-coated plates. The plates were incubated with shaking for 1 hour. The plates were washed 3× with 300 μl of wash buffer on a plate washer. 50 μl of a 1:10,000 dilution of HRP-labeled goat F(ab′)₂ anti-human IgG F(ab′)₂ (Jackson Immunoresearch # 109-036-097) in ELISA buffer was added to each well. The plates were incubated with shaking for 30 minutes. The plates were washed 3× with 300 μl of wash buffer on the plate washer. 50 μl per well TMB substrate (RDI #RDI-TMBSU-1L) was added to each well and developed for 5 minutes. The reaction was stopped by adding 100 μl 0.2 N sulfuric acid. The plates were read at OD450 on an Envision plate reader.
(§2) FcγRIIIa (CD16a) ELISA—A human FcγRIIIa binding assay was done in ELISA format similar to the assay for FcγRI above. 50 μl of a 2 μg/ml solution of recombinant human His-tagged FcγRIIIa (extracellular domain made at Centocor) in ELISA buffer (PBS, 4 mg/ml BSA, 0.01% Tween-20) was added to each well of HisGrab 96 well plates (Pierce #15142) (Powers G., Notebook 10378, 19-23). The plate was incubated for 3 hours at room temp. The plates were blocked with 200 μl of Starting Block (Pierce #15142) for 30 min, and then washed 3× with 300 μl of wash buffer (PBS, 0.01% Tween-20) on a plate washer. Serial dilutions of the CNTO 860 test samples were made in Starting Block buffer and 50 μl per well of each titration were added in duplicate to the FcγRIIIa-coated plates. The plates were incubated for 1 hour. The plates were washed 3× with 300 μl of wash buffer on a plate washer. 50 μl of a 1:10,000 dilution of HRP-labeled goat F(ab′)2 anti-human IgG F(ab′)2 (Jackson Immunoresearch # 109-036-097) in Starting Block buffer was added to each well. The plates were incubated for 30 minutes.

[2] = target: FcγRIIIa on NK cells of human PBMC (human, UniProt P08637 17-254); assay: cell-based or functional assay
Chain of FcγRIIIa on NK cells of human PBMC (P08637 17-254): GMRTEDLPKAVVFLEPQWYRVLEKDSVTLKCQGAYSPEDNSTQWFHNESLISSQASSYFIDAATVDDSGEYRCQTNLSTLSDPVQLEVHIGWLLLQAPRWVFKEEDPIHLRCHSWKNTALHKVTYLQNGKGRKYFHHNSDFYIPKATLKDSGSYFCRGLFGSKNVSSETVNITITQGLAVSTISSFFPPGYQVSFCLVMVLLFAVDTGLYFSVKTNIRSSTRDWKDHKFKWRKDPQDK

[3] = target: T4, recombinant human His-tagged FcγRI (extracellular domain, R&D Systems #1257-FC-050) (human, UniProt P12314 16-292); assay: ELISA
T4 construct: extracellular domain; Bought; also called CD64; recombinant, soluble, human FcγRI
T4 sequence (P12314 16-292): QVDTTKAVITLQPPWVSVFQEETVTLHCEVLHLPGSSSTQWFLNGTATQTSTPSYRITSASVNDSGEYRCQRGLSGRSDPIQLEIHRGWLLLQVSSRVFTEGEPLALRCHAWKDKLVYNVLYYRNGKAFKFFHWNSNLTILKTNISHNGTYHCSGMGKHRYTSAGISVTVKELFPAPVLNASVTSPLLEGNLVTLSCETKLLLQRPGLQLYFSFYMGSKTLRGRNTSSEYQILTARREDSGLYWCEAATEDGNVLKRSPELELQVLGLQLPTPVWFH
Method: as §1, §2

[4] = target: T1, recombinant human His-tagged FcγRIIa …; assay: AlphaScreen
Method: (§3) FcγRIIa (CD32a) AlphaScreen—Nickel acceptor beads (Perkin Elmer #6760619C) were diluted 1:50 in assay buffer (PBS, pH 7.4, 4 mg/ml BSA, 0.01% Tween-20), and 27.5 μl were added to each well of a Nunc V-bottom polypropylene plate (VWR # 62409-108) (Powers G., Notebook 9006, pp. 169-175, 182-185). A 2.0 μg/ml solution of recombinant human His-tagged FcγRIIa (R&D Systems #1330-CD-050) was prepared in assay buffer and 27.5 μl added to each well of a separate Nunc V bottom polypropylene plate. Titrations of test Abs were prepared in the Nunc V bottom polypropylene plate starting at 30 μg/ml. A 2 μg/ml solution of biotinylated goat F(ab′)₂ anti-human IgG F(ab′)₂ (Jackson Immunoresearch #109-066-097) was prepared in assay buffer and 27.5 μl added to each well of another Nunc V bottom polypropylene plate. A 1:50 dilution of streptavidin donor beads (PerkinElmer # 6760002) was prepared in assay buffer and 27.5 μl added to each well of another Nunc V bottom polypropylene plate. A volume of 5 μl of each reagent was added to the corresponding quadrants of a low-volume, non-binding white 384-well plate (Corning # 3673) in the following order: acceptor beads, FcγRIIa, test Ab, biotinylated anti-human IgG F(ab′)₂, and streptavidin donor beads. The plates were incubated for 30 minutes with shaking and the O.D.s determined using an Envision plate reader.
(§4) FcγRIIb (CD32b) AlphaScreen—The assay was performed as described above for FcγRIIa except that FcγRIIa was replaced with FcγRIIb (R&D Systems #1875-CD-050).

[5] = target: T2, recombinant human FcγRIIb (R&D Systems …); assay: AlphaScreen
Method: as §3, §4

| Binder | fold better binding than WT from CHO cells [1] | fold better binding than WT from CHO [1] | fold better binding than WT from YB2/0 cells [1] | further results |
| --- | --- | --- | --- | --- |
| B1 | 6 fold |  |  | fold potency in ADCC against CHO-CNTO 860 WT [2]: ~7 fold |
| B2 |  | ~3 fold |  |  |
| B3 |  | ~30 fold | ~10 fold | fold change of the concentration for 25% lysis against WT CNTO860 from CHO host cells [2]: ~100 fold; fold potency in ADCC against YB2/0-CNTO 860 WT [2]: ~8 fold |
| B4 | ~8 fold |  |  |  |
| B5 |  |  | 6 fold |  |
| B6 |  |  |  | fold reduced binding [3]: < 2 fold; fold reduced binding [4]: 8 fold; fold reduced binding [5]: 500 fold |
